{
  "source": "patent US20240408194A1",
  "about": "“DNA ORIGAMI SUBUNIT VACCINE FOR PREVENTION OF SARS-CoV-2 VARIANT INFECTION” (priority 2021, published 2024)",
  "key": {"[1]": {"molecular_target": "T1, SARS-CoV-2 spike protein receptor binding domain (RBD), monomeric (SARS-CoV-2), P0DTC2"}, "[2]": {"molecular_target": "T1, SARS-CoV-2 spike protein receptor …", "remark": "listed apart in the source"}},
  "data": [
    {"binder": "DNA-LCB (designed binder, modifications not checked) CDKEWILQKIYEIMRLLDELGHAEASMRVSDLIYEFMKKGDERLLEEAERLLEEVER", "values": [
      {"measurement": "Fluorescence (average)", "setting": "[1]", "result": "2.08e+07"},
      {"measurement": "protein coverage", "setting": "[2]", "result": 71.6, "unit": "%"}
    ]}
  ]
}
